Results published in patent publication US20220025056A1 (INNATE PHARMA, published 2022).

B1: 1A9 (antibody, human IgG1, V domains shown)
VH: EVKLQQSGPDLVKPGASVKISCKASGYSFTNFYIHWVKQRPGQGLEWIGWIFPGNGETNYSEKFKGKATLTADTSSSTAYMQFNSLTYEDSAVYFCARTWNYDARWGYWGQGTTLTVSS
VL: DVVMTQTPASLAVSLGQRATISCRASDGIDSYGISFMRWYQQKPGQPPTLLIYRASTLESGIPARFSGSGSRTNFTLTINPVEADDVATYYCQQTNEDPFTFGSGTKLEIK
B2: 2H12 (antibody, human IgG1, V domains shown)
VH: EVKLQQSGPDLVKPGASVKISCKASGYSFTNFYIHWVKQRPGQGLEWIGWIFPGNGETNYSEKFKGKATLTADTSSSTAYMQFNSLTYEDSAVYFCARTWNYDARWGYWGQGTTLTVSS
VL: DILLTQSPASLAVSLGQRATISCRASDGIDSYGISFMHWYQQKPGQPPTLLIYRASTLESGIPARFSGSGSRTDFTLTINPVEADDVATYYCQQTNEAPFTFGSGTKLELK
B3: 2A8A (antibody, human IgG1, V domains shown)
VH: QVQLQQSGPELVKPGASVKISCKASGYSFTNFYIHWVRQRPGQGLDWIGWIFPGSGETKFNEKFKVKATLTADTSSSTAYMQLNSLTSEDSAVYFCARSWNYDARWGYWGQGTSVTVSS
VL: QIVLTQSPASLAVSLGQRATISCRASESIDSYGISFLHWYQQKPGQPPKLLIYRASNLESGIPARFSGSGSRPDFTLTINPVEADDVATYYCQQSNEDPFTFGSGTKLEIK
B4: 6C6 (antibody, human IgG1, V domains shown)
VH: EVQLQQSGPELVKPGASVKISCKASGYSFTNFYIHWVKQRPGQGLDWIGWIFPGSGETNYNERFKGKATLTSDTSSSTAYMQLSSLTSEDSAVYFCARSWNYDARWGYWGQGTTLTVSS
VL: QIVLTQTPASLAVSLGQRATISCRASESIDSYGISFMHWYQQKPGQPPKLLIYRASNLESGIPARFSGSGSRPDFTLTINPVEADDVATYYCQQSNEDPFTFGSGTKLEIK
B5: 2A9 (antibody, human IgG1, V domains shown)
VH: EVKLQQSGPELVKPGASVKISCKASGYSFTNYYIHWVKQRPGQGLEWIGWIFPGSGETNYNEKFKVKATLSADTSSTTAYMQLSSLTSEDSAVYFCARTWNYDARWGYWGQGTTLTVSS
VL: DVVVTQTPASLAVSLGQRATISCRASESIDSYGISFMHWYQQKPGQPPKLLIYRASNLESGIPARFSGSGSRTDFTLTINPVEADDVATYYCQQSNEDPFTFGSGTKLEIK
B6: 1A10D (antibody, human IgG1, V domains shown)
VH: QVQLKQSGPELVKPGASVKISCKASGYSFTNYYIHWVKQRPGQGLEWIGWIFPGSGETNFNEKFKGKATLTADTSSSTAYMQFSSLTSEDSAVYFCARTWNYDARWGYWGQGTTVTVSS
VL: EIVLTQSPASLAVSLGQRATISCRASESIDSYGISFMHWYQQKPGQPPKLLIYRASNLESGIPARFSGSGSRTDFTLTINPVEADDVATYYCQQSNEDPFTFGSGTKLEIK
B7: 2C8 (antibody, human IgG1, V domains shown)
VH: EVQLKQSGPELVKPGASVKISCKASGYSFTNYYIQWVKQRPGQGLEWIGWIFPGNGETNYNEKFKGKATLTADTSSSTAYMQLSSLTSEDSAVYFCARTWNYDARWGYWGQGTSVTVSS
VL: DILLTQSPASLTVSLGQRATISCRANESIDSYGISFMHWYQQKPGQPPKLLIYRASNLDSGIPARFSGSGSRTDFTLTINPVEADDVATYYCQQSNEDPFTFGSGTKLEIK
B8: 3E7A (antibody, human IgG1, V domains shown)
VH: QVQLKQSGPELVKPGASVKISCKASGYSFTNYYIHWVKQRPGQGLEWIGWIFPGSGETNFNEKFKGKATLTADTSSSTAYMQFSSLTSEDSAVYFCARTWNYDARWGYWGQGTTVTVSS
VL: DILMTQSPASLAVSLGQRATISCRASEGIDSYGISFMHWYQQKPGQPPTLLIYRASNLESGIPARFSGSGSRTDFTLTINPVEADDVATYYCQQTNEDPFTFGSGTKLEIK
B9: 3E7B (antibody, human IgG1, V domains shown)
VH: QVQLKQSGPELVKPGASVKISCKASGYSFTNYYIHWVKQRPGQGLEWIGWIFPGSGETNFNEKFKGKATLTADTSSSTAYMQFSSLTSEDSAVYFCARTWNYDARWGYWGQGTTVTVSS
VL: EIQMTQSPASLAVSLGQRATISCRASEGIDSYGISFMHWYQQKPGQPPTLLIYRASNLVSGIPARFSGSGSRTDFTLTINPVEADDVATYYCQQTNEDPFTFGSGTKLEIK
B10: 3E9B (antibody, human IgG1, V domains shown)
VH: EVQLQESGPELVKPGASVKISCKTSGYSFTNYYIHWVKQRPGQGLEWIGWIFPGSGETNYNEKFKGKATLSADTSSTTAYMQLSSLTSEDSAVYFCARTWNYDARWGYWGQGTTVTVSS
VL: EILLTQSPASLAVSLGQRATISCRASETIDSYGISFMHWYQQKPGQPPKLLIYRASNLESGIPARFSGSGSRTDFTLTINPVEADDVATYYCQQSNEDPFTFGSGTKLEIK
B11: 5D9 (antibody, human IgG1, V domains shown)
VH: QVQLKESGPELVKPGASVKISCKASGYSFTNYYIHWVKQRPGQGLEWIGWIFLGSGETNYNEKFKGEAILTADTSSTTAYMQLSSLTSEDSAVYFCARSWNYDARWGYWGQGTTLTVSS
VL: EIVLTQSPASLAVSLGQRATISCRASESIDSYGISFIHWYQQKPGQPPKLLIYRASNLESGIPARFSGSGSRTDFTLTINPVEAEDVATYYCQQSNEDPFTFGSGTKLEIK
B12: 2D8 (antibody, human IgG1, V domains shown)
VH: EVQLQQSGPELVKPGASVKISCKSSGYSFTNFYIHWVKQRPGQGLDWIGWIFPGSGETNFNEKFKVKAALTADTSSNTAYMQLSSLTSEDSAVYFCARSWNYDARWGYWGQGTTVTVSS
VL: DAVMTQTPASLAVSLGQRATISCRASESVDSYGISFMHWYQQKPGQPPKLLIYRASILESGIPARFSGSGSRPDFSLTINPVEADDVATYYCQQSNEDPFTFGSGTKLEIK
B13: 2E2B (antibody, human IgG1, V domains shown)
VH: DVQLVESGPELVKPGASVKISCKASGYSFTNYYMQWVKQRPGQGLEWIGWIFPGGGESNYNEKFKGKATLSADTSSTTAYMQLSSLTSEDSAVYFCARTWNYDARWGYWGQGTTVTVSS
VL: DIVLTQSPASLAVSLGQRATISCIPSESIDSYGISFMHWYQQKPGQPPKLLIYRASNLESGIPARFSGSGSRTDFTLTINPVEADDVATYYCQQSNEDPFTFGSGTKLEIK
B14: 2E2C (antibody, human IgG1, V domains shown)
VH: EFQLQQSGPELVKPGASVKISCKASGYSFTNYYMQWVKQRPGQGLEWIGWIFPGSGESNYNEKFKGKATLSADTSSTTAYMQLSSLTSEDSAVYFCARTWNYDARWGYWGQGTTLTVSS
VL: DIVMTQSPASLAVSLGQRATISCIPSESIDSYGISFMHWYQQKPGQPPKLLIYRASNLESGIPARFSGSGSRTDFTLTINPVEADDVATYYCQQSNEDPFTFGSGTKLEIK
B15: 2E11 (antibody, human IgG1, V domains shown)
VH: QVQLKESGPELVKPGASVKISCKTSGYSFTNYYIHWVKQRPGQGLEWIGWIFPGSGDTNYNEKFKGKATLTADTSSNTASMHLSSLTSEDSAVYFCARTWNYDARWGYWGQGTTLTVSS
VL: DIVMTQSPASLAVSLGQRATISCRVSESIDSYGISFMHWYQQKSGQPPKVLIYRASTLESGIPARFSGSGSRTDFTLTINPVEADDVATYYCQQSNEDPFTFGSGTKLEIK
B16: 4H3 (antibody, human IgG1, V domains shown)
VH: QVQLKESGPELVKPGASVKISCKTSGYIFTNYYIHWVKQRPGQGLEWIGWIFPGSGDTNYNEKFKGKATLTADTSSSTASMQLSSLTSEDSAVYFCARTWNYDARWGYWGQGTTVTVSS
VL: DILLTQSPASLAVSLGQRATISCRVSESIDSYGISFMHWYQQKSGQPPKVLIYRASTLESGIPARFSGSGSRTDFTLTINPVEADDVATYYCQQSNEDPFTFGSGTKLEIK
B17: 3E5 (antibody, human IgG1, V domains shown)
VH: DVQLQESGPELVKPGASVKISCKSSGYSFTNFYIHWVKQRPGQGLDWIGWIFPGTGETNFNEKFKVKAALTADTSSSTVYMQLSTLTSEDSAVYFCARSWNYDARWGYWGQGTSITVSS
VL: ENVLTQSPASLAVSLGQRATISCRASESIDSFGISFMHWYQQKPGQPPKLLIYRASNLESGIPARFSGSGSGPDFSLTIDPVEADDVATYYCQQSNEAPFTFGSGTKLEIK
B18: 4C11B (antibody, human IgG1, V domains shown)
VH: QVQLKESGPELVKPGASVKISCKASGYSFTNYYIHWVKQRPGQGLEWIGWIFPGSGETNYSEKFKGEAILTADTSSNTAYMQLSSLTSEDSAVYFCARSWNYDARWGYWGQGTTLTVSS
VL: QIVLSQSPVSLAVSPGQRATISCRASESIDSYGISFMHWYKQKPGQPPKLLIYRASNLESGIPARFSGSGSRTDFTLTINPVEADDVATYYCQQSNEDPFTFGSGTKLEIK
B19: 4E3B (antibody, human IgG1, V domains shown)
VH: EVHLQQSGPELVKPGASVKISCKASGYSFTNYYIQWVKQRPGQGLEWIGWIFPGSGETNYNENFRAKATLSADTSSTTAYMQLSSLTSEDSAVYFCARTWNYDARWGYWGQGTTVTVSS
VL: DILLTQSPASLAVSLGQRATISCRPSENIDSYGISFMHWCQQKPGQPPKLLIYRASNLESGIPVRFSGSGSRTDFTLTINPVEADDVATYYCQQSNEDPFTFGSGTKLEIK

Columns and labels:
[1] = molecular target: T1, anchored ILT2 D2 domain protein (human); assay: flow cytometry, CHO cells with anchored ILT2 domain proteins
T1 construct: on CHO cells; the entry includes leader remnant, V5 tag and CD24 GPI anchor signal

[2] = molecular target: T2, anchored ILT2 D4 domain protein (human, UniProt Q8NHL6 322-650); assay: as above
T2 construct: on CHO cells; the entry includes leader remnant, V5 tag, and the ILT2 transmembrane and cytoplasmic parts

[3] = molecular target: T3, human ILT6 (LILRA3) on CHO cells (human, UniProt Q8N6C8 24-434); assay: flow cytometry, CHO transfectants
T3 construct: also called CHO ILT6 cell line; human ILT-6 polypeptide

ILT2 mutant 2 = molecular target: T4, ILT2 mutant 2 (human, UniProt Q8NHL6 24-650); assay: flow cytometry, ILT2 point mutants
T4 construct: transfected in HEK293T cells; also called M2
T4 sequence (Q8NHL6 other isoform, or with tags, fused parts or gaps mutant): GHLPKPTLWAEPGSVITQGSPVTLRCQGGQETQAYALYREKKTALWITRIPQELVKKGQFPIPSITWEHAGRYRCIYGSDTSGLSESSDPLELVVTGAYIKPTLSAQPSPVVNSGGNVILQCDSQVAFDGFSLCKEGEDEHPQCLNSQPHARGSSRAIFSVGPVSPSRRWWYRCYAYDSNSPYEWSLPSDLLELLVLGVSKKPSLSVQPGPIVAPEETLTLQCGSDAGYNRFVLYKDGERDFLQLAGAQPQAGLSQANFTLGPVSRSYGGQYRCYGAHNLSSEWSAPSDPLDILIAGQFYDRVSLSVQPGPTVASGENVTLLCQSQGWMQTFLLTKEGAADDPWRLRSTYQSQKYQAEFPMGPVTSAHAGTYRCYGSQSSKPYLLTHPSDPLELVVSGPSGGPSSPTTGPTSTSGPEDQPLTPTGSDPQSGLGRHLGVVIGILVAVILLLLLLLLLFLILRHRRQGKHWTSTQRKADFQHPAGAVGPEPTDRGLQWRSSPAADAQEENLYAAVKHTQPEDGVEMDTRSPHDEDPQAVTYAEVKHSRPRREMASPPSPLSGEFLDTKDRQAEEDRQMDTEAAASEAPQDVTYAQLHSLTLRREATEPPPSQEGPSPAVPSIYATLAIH

T3 sequence (Q8N6C8 other isoform, or with tags, fused parts or gaps): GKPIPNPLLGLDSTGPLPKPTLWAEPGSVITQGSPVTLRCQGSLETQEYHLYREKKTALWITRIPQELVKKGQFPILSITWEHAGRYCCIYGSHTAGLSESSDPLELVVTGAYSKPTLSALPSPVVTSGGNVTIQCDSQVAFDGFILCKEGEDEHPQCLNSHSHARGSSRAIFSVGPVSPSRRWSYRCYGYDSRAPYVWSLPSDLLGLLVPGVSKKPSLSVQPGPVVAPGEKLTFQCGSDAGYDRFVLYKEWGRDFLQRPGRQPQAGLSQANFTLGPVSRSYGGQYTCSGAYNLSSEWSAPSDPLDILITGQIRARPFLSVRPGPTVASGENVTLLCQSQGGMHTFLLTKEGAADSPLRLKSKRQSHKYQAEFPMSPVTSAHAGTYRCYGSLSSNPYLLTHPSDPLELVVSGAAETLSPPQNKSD
T1 sequence (chain, as listed by the source limits assumed): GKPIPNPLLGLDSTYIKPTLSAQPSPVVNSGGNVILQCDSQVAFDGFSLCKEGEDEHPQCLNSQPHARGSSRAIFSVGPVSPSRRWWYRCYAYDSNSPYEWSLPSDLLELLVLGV
T2 sequence (Q8NHL6 other isoform, or with tags, fused parts or gaps limits assumed): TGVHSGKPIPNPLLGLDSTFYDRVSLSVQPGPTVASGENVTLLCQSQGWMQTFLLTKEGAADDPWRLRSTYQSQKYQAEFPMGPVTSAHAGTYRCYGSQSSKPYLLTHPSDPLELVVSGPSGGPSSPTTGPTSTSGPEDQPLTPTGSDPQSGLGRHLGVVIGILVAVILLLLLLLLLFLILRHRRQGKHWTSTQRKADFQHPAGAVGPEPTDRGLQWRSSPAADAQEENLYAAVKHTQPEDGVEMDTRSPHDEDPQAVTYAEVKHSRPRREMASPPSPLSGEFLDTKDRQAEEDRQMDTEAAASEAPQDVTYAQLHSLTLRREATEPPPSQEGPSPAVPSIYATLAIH

Binder | binding result [1] | binding result [2] | binding result [3] | binding result (ILT2 mutant 2)
B1 | no binding | no binding |  | 
B2 |  |  | no binding | no binding
B3 |  |  | no binding | no binding
B4 |  |  | no binding | no binding
B5 |  |  | no binding | no binding
B6 |  |  | no binding | no binding
B7 |  |  | no binding | no binding
B8 |  |  | no binding | no binding
B9 |  |  | no binding | no binding
B10 |  |  | no binding | no binding
B11 |  |  | no binding | no binding
B12 |  |  | no binding | no binding
B13 |  |  | no binding | no binding
B14 |  |  | no binding | no binding
B15 |  |  | no binding | no binding
B16 |  |  | no binding | no binding
B17 |  |  | no binding | no binding
B18 |  |  | no binding | no binding
B19 |  |  | no binding | no binding
